Experimental findings from patent US8748182B2, “Mutant proteins and methods for producing them” (Heptares Therapeutics Limited, priority 2007, dated 2014) are described below.

The nature of the data set: Thermostability of neurotensin receptor (NTR) mutants (3H-neurotensin binding). The format is physicochemical. Conditions: heated in the absence of the agonist. On the procedure: FIG. 12 Flow chart showing the two different assay formats of ligand (+) and ligand (−) used to determine receptor thermostablity.
3. Mutants tested for thermostability by heating in the absence of the agonist were re-tested using a slightly different assay where the mutants were heated in the presence of ^3H-neurotensin (Ligand(+) format in FIG. 12). […] All of these also have increased thermostability. • 5. Preferred combinations are • a. Nag7m F358A+A86L+1260A+F342A Tm 51° C. (neurotensin bound) • b. Nag7n F358A+H103A+1260A+F342A Tm 51° C. (neurotensin bound) • Wildtype NTR has a Tm of 35° C. with neurotensin bound.

B1: S182A: NTR point mutant (protein, UniProt P20789 1-424, looked up, variant S182A)
Neurotensin receptor type 1: MHLNSSVPQGTPGEPDAQPFSGPQSEMEATFLALSLSNGSGNTSESDTAGPNSDLDVNTDIYSKVLVTAIYLALFVVGTVGNSVTAFTLARKKSLQSLQSTVHYHLGSLALSDLLILLLAMPVELYNFIWVHHPWAFGDAGCRGYYFLRDACTYATALNVASLSVERYLAICHPFKAKTLMARSRTKKFISAIWLASALLAIPMLFTMGLQNRSGDGTHPGGLVCTPIVDTATVKVVIQVNTFMSFLFPMLVISILNTVIANKLTVMVHQAAEQGRVCTVGTHNGLEHSTFNMTIEPGRVQALRHGVLVLRAVVIAFVVCWLPYHVRRLMFCYISDEQWTTFLFDFYHYFYMLTNALFYVSSAINPILYNLVSANFRQVFLSTLACLCPGWRHRRKKRPTFSRKPNSMSSNHAFSTSATRETLY
Regarding B1, the “thermostability, 3H-neurotensin (agonist) binding after the heating step” value (“thermostability, 3H-neurotensin” for short) is “small but significant increase in thermostability”.

B2: S100A: NTR point mutant (protein, UniProt P20789 1-424, looked up, variant S100A)
Neurotensin receptor type 1: MHLNSSVPQGTPGEPDAQPFSGPQSEMEATFLALSLSNGSGNTSESDTAGPNSDLDVNTDIYSKVLVTAIYLALFVVGTVGNSVTAFTLARKKSLQSLQATVHYHLGSLALSDLLILLLAMPVELYNFIWVHHPWAFGDAGCRGYYFLRDACTYATALNVASLSVERYLAICHPFKAKTLMSRSRTKKFISAIWLASALLAIPMLFTMGLQNRSGDGTHPGGLVCTPIVDTATVKVVIQVNTFMSFLFPMLVISILNTVIANKLTVMVHQAAEQGRVCTVGTHNGLEHSTFNMTIEPGRVQALRHGVLVLRAVVIAFVVCWLPYHVRRLMFCYISDEQWTTFLFDFYHYFYMLTNALFYVSSAINPILYNLVSANFRQVFLSTLACLCPGWRHRRKKRPTFSRKPNSMSSNHAFSTSATRETLY
In the case of B2, the “thermostability, 3H-neurotensin” value is reported as “small but significant increase in thermostability”.

B3: M293A: NTR point mutant (protein, UniProt P20789 1-424, looked up, variant M293A)
Neurotensin receptor type 1: MHLNSSVPQGTPGEPDAQPFSGPQSEMEATFLALSLSNGSGNTSESDTAGPNSDLDVNTDIYSKVLVTAIYLALFVVGTVGNSVTAFTLARKKSLQSLQSTVHYHLGSLALSDLLILLLAMPVELYNFIWVHHPWAFGDAGCRGYYFLRDACTYATALNVASLSVERYLAICHPFKAKTLMSRSRTKKFISAIWLASALLAIPMLFTMGLQNRSGDGTHPGGLVCTPIVDTATVKVVIQVNTFMSFLFPMLVISILNTVIANKLTVMVHQAAEQGRVCTVGTHNGLEHSTFNATIEPGRVQALRHGVLVLRAVVIAFVVCWLPYHVRRLMFCYISDEQWTTFLFDFYHYFYMLTNALFYVSSAINPILYNLVSANFRQVFLSTLACLCPGWRHRRKKRPTFSRKPNSMSSNHAFSTSATRETLY
In the case of B3, the “thermostability, 3H-neurotensin” value is recorded as “small but significant increase in thermostability”.

B4: K176A: NTR point mutant (protein, UniProt P20789 1-424, looked up, variant K176A)
Neurotensin receptor type 1: MHLNSSVPQGTPGEPDAQPFSGPQSEMEATFLALSLSNGSGNTSESDTAGPNSDLDVNTDIYSKVLVTAIYLALFVVGTVGNSVTAFTLARKKSLQSLQSTVHYHLGSLALSDLLILLLAMPVELYNFIWVHHPWAFGDAGCRGYYFLRDACTYATALNVASLSVERYLAICHPFAAKTLMSRSRTKKFISAIWLASALLAIPMLFTMGLQNRSGDGTHPGGLVCTPIVDTATVKVVIQVNTFMSFLFPMLVISILNTVIANKLTVMVHQAAEQGRVCTVGTHNGLEHSTFNMTIEPGRVQALRHGVLVLRAVVIAFVVCWLPYHVRRLMFCYISDEQWTTFLFDFYHYFYMLTNALFYVSSAINPILYNLVSANFRQVFLSTLACLCPGWRHRRKKRPTFSRKPNSMSSNHAFSTSATRETLY
As for B4, the “thermostability, 3H-neurotensin” value is reported as “small but significant increase in thermostability”.

B5: L111A: NTR point mutant (protein, UniProt P20789 1-424, looked up, variant L111A)
Neurotensin receptor type 1: MHLNSSVPQGTPGEPDAQPFSGPQSEMEATFLALSLSNGSGNTSESDTAGPNSDLDVNTDIYSKVLVTAIYLALFVVGTVGNSVTAFTLARKKSLQSLQSTVHYHLGSLAASDLLILLLAMPVELYNFIWVHHPWAFGDAGCRGYYFLRDACTYATALNVASLSVERYLAICHPFKAKTLMSRSRTKKFISAIWLASALLAIPMLFTMGLQNRSGDGTHPGGLVCTPIVDTATVKVVIQVNTFMSFLFPMLVISILNTVIANKLTVMVHQAAEQGRVCTVGTHNGLEHSTFNMTIEPGRVQALRHGVLVLRAVVIAFVVCWLPYHVRRLMFCYISDEQWTTFLFDFYHYFYMLTNALFYVSSAINPILYNLVSANFRQVFLSTLACLCPGWRHRRKKRPTFSRKPNSMSSNHAFSTSATRETLY
For the molecule B5, the “thermostability, 3H-neurotensin” value is on record as “small but significant increase in thermostability”.

B6: F147A: NTR point mutant (protein, UniProt P20789 1-424, looked up, variant F147A)
Neurotensin receptor type 1: MHLNSSVPQGTPGEPDAQPFSGPQSEMEATFLALSLSNGSGNTSESDTAGPNSDLDVNTDIYSKVLVTAIYLALFVVGTVGNSVTAFTLARKKSLQSLQSTVHYHLGSLALSDLLILLLAMPVELYNFIWVHHPWAFGDAGCRGYYALRDACTYATALNVASLSVERYLAICHPFKAKTLMSRSRTKKFISAIWLASALLAIPMLFTMGLQNRSGDGTHPGGLVCTPIVDTATVKVVIQVNTFMSFLFPMLVISILNTVIANKLTVMVHQAAEQGRVCTVGTHNGLEHSTFNMTIEPGRVQALRHGVLVLRAVVIAFVVCWLPYHVRRLMFCYISDEQWTTFLFDFYHYFYMLTNALFYVSSAINPILYNLVSANFRQVFLSTLACLCPGWRHRRKKRPTFSRKPNSMSSNHAFSTSATRETLY
Take B6: the “thermostability, 3H-neurotensin” value is on record as “small but significant increase in thermostability”.

B7: D139A: NTR point mutant (protein, UniProt P20789 1-424, looked up, variant D139A)
Neurotensin receptor type 1: MHLNSSVPQGTPGEPDAQPFSGPQSEMEATFLALSLSNGSGNTSESDTAGPNSDLDVNTDIYSKVLVTAIYLALFVVGTVGNSVTAFTLARKKSLQSLQSTVHYHLGSLALSDLLILLLAMPVELYNFIWVHHPWAFGAAGCRGYYFLRDACTYATALNVASLSVERYLAICHPFKAKTLMSRSRTKKFISAIWLASALLAIPMLFTMGLQNRSGDGTHPGGLVCTPIVDTATVKVVIQVNTFMSFLFPMLVISILNTVIANKLTVMVHQAAEQGRVCTVGTHNGLEHSTFNMTIEPGRVQALRHGVLVLRAVVIAFVVCWLPYHVRRLMFCYISDEQWTTFLFDFYHYFYMLTNALFYVSSAINPILYNLVSANFRQVFLSTLACLCPGWRHRRKKRPTFSRKPNSMSSNHAFSTSATRETLY
Take B7: the “thermostability, 3H-neurotensin” value is given as “small but significant increase in thermostability”.

B8: L256A: NTR point mutant (protein, UniProt P20789 1-424, looked up, variant L256A)
Neurotensin receptor type 1: MHLNSSVPQGTPGEPDAQPFSGPQSEMEATFLALSLSNGSGNTSESDTAGPNSDLDVNTDIYSKVLVTAIYLALFVVGTVGNSVTAFTLARKKSLQSLQSTVHYHLGSLALSDLLILLLAMPVELYNFIWVHHPWAFGDAGCRGYYFLRDACTYATALNVASLSVERYLAICHPFKAKTLMSRSRTKKFISAIWLASALLAIPMLFTMGLQNRSGDGTHPGGLVCTPIVDTATVKVVIQVNTFMSFLFPMLVISIANTVIANKLTVMVHQAAEQGRVCTVGTHNGLEHSTFNMTIEPGRVQALRHGVLVLRAVVIAFVVCWLPYHVRRLMFCYISDEQWTTFLFDFYHYFYMLTNALFYVSSAINPILYNLVSANFRQVFLSTLACLCPGWRHRRKKRPTFSRKPNSMSSNHAFSTSATRETLY
Consider B8, for which the “thermostability, 3H-neurotensin” value is “small but significant increase in thermostability”.
